The target of assay [1] is T1, recombinant cynomolgus Robo 4 ECD fused to AcTEV protease recognition site, Avi- and 6xHis-tag (cynomolgus).
T1 construct: Biotinylated in the avidity assay
T1 chain: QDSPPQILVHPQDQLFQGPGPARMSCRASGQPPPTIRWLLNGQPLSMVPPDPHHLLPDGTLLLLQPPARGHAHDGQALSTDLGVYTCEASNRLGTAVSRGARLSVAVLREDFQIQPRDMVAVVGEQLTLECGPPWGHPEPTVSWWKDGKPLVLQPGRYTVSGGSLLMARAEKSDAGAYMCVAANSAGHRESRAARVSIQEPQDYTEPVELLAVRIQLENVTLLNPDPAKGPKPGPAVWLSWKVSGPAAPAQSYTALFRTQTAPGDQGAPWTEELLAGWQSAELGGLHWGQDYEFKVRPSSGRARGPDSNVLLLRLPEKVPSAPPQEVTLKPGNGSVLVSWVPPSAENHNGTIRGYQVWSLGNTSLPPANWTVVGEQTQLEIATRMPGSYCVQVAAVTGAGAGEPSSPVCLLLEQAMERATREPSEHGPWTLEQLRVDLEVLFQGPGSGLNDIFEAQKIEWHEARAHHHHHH
In words: SPR Biacore T100, biotinylated antigen on streptavidin chip, IgG as analyte (avidity). The protocol:
(§1) All surface plasmon resonance (SPR) experiments are performed on a Biacore T100 at 25° C. with HBS-EP as running buffer (0.01 M HEPES pH 7.4, 0.15 M NaCl, 3 mM EDTA, 0.005% Surfactant P20 (Biacore)).
(§2) Determination of avidity was done by direct immobilization of biotinylated recombinant human, murine and cynomolgus Robo 4 on a Streptavidin sensor chip. Immobilization level ranged from 300 to 1000 RU. Anti-Robo 4 antibodies were passed through the flow cells for 220 s at 30 μl/min in a concentration range from 0.78-50 nM. Dissociation was monitored for 220 s. For the blank and the 25 nM injection dissociation was monitored for 600 s.
(§3) Kinetic constants were derived using the Biacore T100 Evaluation Software (vAA, Biacore), to fit rate equations for 1:1 Langmuir binding by numerical integration.
(Surface plasmon resonance follows binding to a sensor surface in real time, without labels.)

Assay [2] concerns the target T2, human (hu) Robo 4 extracellular domain (ECD)-precision site (PreS)-Avi-tag (Avi)-6x histidine (His) (human).
T2 construct: it holds the ECD with PreScission site, Avi-tag and His-tag; also called recombinant human Robo 4; human Robo 4
T2 chain: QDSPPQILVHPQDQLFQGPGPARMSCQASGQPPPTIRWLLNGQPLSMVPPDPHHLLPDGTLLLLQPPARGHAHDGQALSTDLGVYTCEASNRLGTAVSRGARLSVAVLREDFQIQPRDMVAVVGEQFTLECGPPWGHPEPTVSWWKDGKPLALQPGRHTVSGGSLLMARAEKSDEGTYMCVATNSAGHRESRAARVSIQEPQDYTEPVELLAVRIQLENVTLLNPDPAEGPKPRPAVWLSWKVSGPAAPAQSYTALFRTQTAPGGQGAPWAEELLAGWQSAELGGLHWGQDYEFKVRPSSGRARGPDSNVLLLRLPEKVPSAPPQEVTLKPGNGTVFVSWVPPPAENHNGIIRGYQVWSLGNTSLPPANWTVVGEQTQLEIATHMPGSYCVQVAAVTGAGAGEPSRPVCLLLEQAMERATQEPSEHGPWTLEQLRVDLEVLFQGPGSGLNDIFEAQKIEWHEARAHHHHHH
Described as above. As for the experimental part:
as §1, §2, §3

Assay [3] has as its target T3, full-length human Robo 4 (on cells) (human, UniProt Q8WZ75 28-1007).
T3 construct: also called CHO-Robo 4; Robo 4 on HUVECs
T3 sequence: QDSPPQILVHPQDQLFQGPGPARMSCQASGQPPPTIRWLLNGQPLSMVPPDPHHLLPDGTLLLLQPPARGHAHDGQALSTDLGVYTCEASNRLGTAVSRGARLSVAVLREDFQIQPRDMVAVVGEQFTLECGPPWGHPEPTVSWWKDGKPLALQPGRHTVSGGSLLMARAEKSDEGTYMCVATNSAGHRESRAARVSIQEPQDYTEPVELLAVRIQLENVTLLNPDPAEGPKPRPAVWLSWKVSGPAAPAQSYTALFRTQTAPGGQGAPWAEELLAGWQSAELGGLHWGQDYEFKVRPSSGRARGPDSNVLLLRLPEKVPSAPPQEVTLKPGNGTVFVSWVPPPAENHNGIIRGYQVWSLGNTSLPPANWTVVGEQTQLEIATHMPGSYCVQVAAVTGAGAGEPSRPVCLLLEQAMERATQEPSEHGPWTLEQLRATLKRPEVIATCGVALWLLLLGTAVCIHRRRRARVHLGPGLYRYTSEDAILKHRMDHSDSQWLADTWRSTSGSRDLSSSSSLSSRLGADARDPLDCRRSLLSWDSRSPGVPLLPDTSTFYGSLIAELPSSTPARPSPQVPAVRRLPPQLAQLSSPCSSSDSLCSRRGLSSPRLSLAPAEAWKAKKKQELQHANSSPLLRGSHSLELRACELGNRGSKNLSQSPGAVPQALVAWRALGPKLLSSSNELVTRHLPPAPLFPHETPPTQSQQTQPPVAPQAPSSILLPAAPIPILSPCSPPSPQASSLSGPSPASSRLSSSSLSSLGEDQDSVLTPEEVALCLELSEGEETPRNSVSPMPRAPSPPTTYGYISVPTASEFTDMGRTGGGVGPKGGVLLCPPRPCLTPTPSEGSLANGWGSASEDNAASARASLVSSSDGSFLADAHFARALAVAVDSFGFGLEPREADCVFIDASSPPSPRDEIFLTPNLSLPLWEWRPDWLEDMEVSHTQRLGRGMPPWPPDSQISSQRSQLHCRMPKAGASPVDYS
In words: flow cytometry on CHO cells stably expressing full-length human Robo 4. The protocol:
Binding of anti-Robo 4 IgGs was tested on CHO cells stably expressing full-length human Robo 4 (CHO-Robo 4). Briefly, cells were harvested, counted and checked for viability.

B1: 01E06 anti-Robo 4 IgG (antibody, V domains shown)
VH: EVQLVESGGGLSQPGNSLKLSCEASGFTFRNYDMSWVRQAPGKGLEWVAYISSGGGPIYYVDAVKGRFTISRDNAKNLLFLQMNNLRSEDTAVYYCARDLADIGVFDYWGQGTMVTVSS
VL: DFKMTQSPDILSPSLGESVTITCQSSQNIYSNLAWYQQKPGEHPKLLIYTASILADGIPSRFTGSGSGTQFSLKISSLQPDDVANYYCQQYVYYRTFGPGTKLEIK
notes: also called 01E06 IgG
On to B1, for which, in assay [1], the Kd worked out at 0.1 pM and the kon – broadly, a measure of how fast the partners come together – was 1.13e+06 M⁻¹ s⁻¹. In addition, in assay [2], the Kd stood at 0.7 pM; the koff (as a rule, a measure of how fast the partners let go of each other) was approximately 1.25e-06 s⁻¹; the kon was found to be 1.76e+06 M⁻¹ s⁻¹. In addition, it took 1100 pM to reach a half-maximal effect in assay [3] (EC50).

B2: 01F05 anti-Robo 4 IgG (antibody, V domains shown)
VH: QVQLKQSGAELVKPGASVKISCKTSVYTFTYGYMHWVEQKPGQGLEWIGRIDPDSGNSMYNQKFQGRATLTRDKSSSTVYMELRSLTSEDSAVYYCARSMRYSGYRDYALDLWGQGTQVTVSS
VL: QLVLTQSPSASASLGASVKLTCTLSSQHSSYGITWLQQHPDKAPKYVMYLKSDGSHTKGADIPDRFSGSSSGVHRYLSISNVQPEDEAIYFCVTYDSTHVFGSGTQLTVLG
notes: also called 01F05 IgG
Regarding B2, in assay [1], the Kd stood at 580 pM, the koff stood at 0.000475 s⁻¹ and the kon was found to be 822000 M⁻¹ s⁻¹. In assay [2], this molecule gave a Kd of 93 pM, a koff of 6.13e-05 s⁻¹ and a kon of 657000 M⁻¹ s⁻¹. Moreover, the EC50 (commonly the concentration at which the effect is half-maximal) in assay [3] came out at 6100 pM.

B3: 7G2 anti-Robo 4 IgG (antibody, V domains shown)
VH: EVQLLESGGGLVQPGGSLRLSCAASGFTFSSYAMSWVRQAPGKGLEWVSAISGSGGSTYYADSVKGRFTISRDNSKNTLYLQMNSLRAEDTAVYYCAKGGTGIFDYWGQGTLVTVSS
VL: EIVLTQSPGTLSLSPGERATLSCRASQSVSSSYLAWYQQKPGQAPRLLIYGASSRATGIPDRFSGSGSGTDFTLTISRLEPEDFAVYYCQQGQLPPRTFGQGTKVEIK
notes: also called 7G2 IgG
As for B3, in assay [1], the Kd was 940 pM, the koff came out at 0.000291 s⁻¹ and the kon worked out at 310000 M⁻¹ s⁻¹. Besides, in assay [2], the Kd came to 421 pM, the koff turned out to be 0.000152 s⁻¹ and the kon was 361000 M⁻¹ s⁻¹. A half-maximal effect in assay [3] (EC50) was put at 4600 pM.

B4: 01F09 anti-Robo 4 IgG (antibody, V domains shown)
VH: QIQLQESGPGLVKPSQSLSLTCSVTGYSISSGSLWTWIRQFPGNNLEWMGYISYAGGIDYNPSLTSRISITRDTSRNQFFLQLESVTTQDTATYYCATPGGYPFHFDYWGQGTMVTVSS
VL: QPVLTQSPSASASLGASVKLTCTLNSQFSTYNIGWYQQHRDKPPKYVMFVKGDGGHSKADGIPDRFSGSSSGADRYLTISNIQAEDEAIYFCGADYNNAGQYGCVFGSGTHFTVLG
notes: also called 01F09 IgG
On to B4, for which, in assay [1], the Kd worked out at 370 pM, the koff amounted to 0.000817 s⁻¹ and the kon was 2.22e+06 M⁻¹ s⁻¹. Moreover, in assay [2], the Kd was found to be 18 pM, the koff came out at 3.78e-05 s⁻¹ and the kon is 2.1e+06 M⁻¹ s⁻¹. In assay [3], the EC50 came to 2500 pM.

Values taken from patent US20180282410A1 (Hoffmann-La Roche, published 2018).
